From article PMC10148139

Molecular target: MAGE D2 MAGE homology domain (MHD), amino acids 261–521 (human) (UniProt Q9UNF1)
Assay: MST

UniProt Q9UNF1, sequence (Q9UNF1 261-521): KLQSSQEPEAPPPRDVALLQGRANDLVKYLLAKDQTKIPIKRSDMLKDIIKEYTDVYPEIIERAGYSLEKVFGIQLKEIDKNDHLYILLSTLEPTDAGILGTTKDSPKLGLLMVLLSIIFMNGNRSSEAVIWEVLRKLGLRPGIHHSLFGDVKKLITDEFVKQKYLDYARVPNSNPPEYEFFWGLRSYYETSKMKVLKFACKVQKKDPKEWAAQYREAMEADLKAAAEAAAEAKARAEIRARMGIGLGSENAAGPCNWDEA

Gαs AHD (amino acids 68–206), purified (from UniProt P63092-2 68-206) (domain or fragment)
Kd: 0.155 µM
